T1: sGP 1-295aa (Ebola virus (ZEbov by the title of …, UniProt P60170 33-295))
T1 sequence: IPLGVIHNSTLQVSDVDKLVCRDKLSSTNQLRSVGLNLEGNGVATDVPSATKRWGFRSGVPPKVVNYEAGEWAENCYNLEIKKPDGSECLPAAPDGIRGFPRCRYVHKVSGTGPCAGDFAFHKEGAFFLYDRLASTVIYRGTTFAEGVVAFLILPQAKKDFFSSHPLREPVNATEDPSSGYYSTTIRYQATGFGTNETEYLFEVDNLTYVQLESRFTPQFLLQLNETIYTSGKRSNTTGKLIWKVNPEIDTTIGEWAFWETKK

T2: GP1 1-501aa (Ebola virus (ZEbov by the title of …, UniProt Q05320 33-501))
T2 sequence: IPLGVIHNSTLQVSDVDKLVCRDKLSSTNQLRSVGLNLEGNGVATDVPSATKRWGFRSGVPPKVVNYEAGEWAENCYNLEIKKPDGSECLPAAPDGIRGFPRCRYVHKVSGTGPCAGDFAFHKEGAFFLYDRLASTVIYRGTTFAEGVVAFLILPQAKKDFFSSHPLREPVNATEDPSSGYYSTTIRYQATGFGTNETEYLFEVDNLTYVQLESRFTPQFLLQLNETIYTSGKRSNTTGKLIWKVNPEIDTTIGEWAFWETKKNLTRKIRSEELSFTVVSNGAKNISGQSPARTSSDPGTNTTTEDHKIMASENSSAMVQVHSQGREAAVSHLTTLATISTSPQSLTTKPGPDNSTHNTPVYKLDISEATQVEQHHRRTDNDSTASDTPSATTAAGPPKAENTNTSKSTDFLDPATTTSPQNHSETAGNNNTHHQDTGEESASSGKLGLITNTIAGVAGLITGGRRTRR

T3: Mucin domain 333-458aa (Ebola virus (ZEbov by the title of …, UniProt Q05320 333-458))
T3 sequence: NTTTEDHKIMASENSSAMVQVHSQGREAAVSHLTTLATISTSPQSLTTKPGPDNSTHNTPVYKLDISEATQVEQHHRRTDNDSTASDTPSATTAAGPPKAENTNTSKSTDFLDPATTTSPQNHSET

B1: monoclonal antibody 7C9 (antibody, V domains shown)
VH: GAELVKPGASVKLSCTASGFNIKDTYMHWVKERPDKGLEWIGRIDPANGNTKCDSRFQGKATITADTSSNTAYLQLSSLTSEDTAVYYCARRIYFGKGFDFWGQGTTLTVSS
VL: SSLSVSAGEKVTMSCKSSQSLFNSGDQKNYLAWYQQKPGQPPKLLIYGASTRESGVPDRFTGSGSGTDFTLTISSVQAEDLAVYYCQNDQFYPPTFGDGTKLDLKR
B2: monoclonal antibody 5E6 (antibody, V domains shown)
VH: GGGLVKPGGSLKLSCAASGSAFSRYDMSWVRQTPEKRLEWVAYISRGGGFIYYPDTVKGRFTISRDNAKNTLYLQMSSLKSDDTAMYYCARHVYYGSSPLYAMDYWGQGTSVTVSS
VL: SASFSLGASAKLTCTLSSQHSTFTIEWYQQQPLKPPKYVMELKKDGSHSTGDGIPDRFSGSSSGADRYLSISNIQPEDEAIYICGVGDTINEQFVYVFGGGTKVTVLG
B3: monoclonal antibody 2G4 (antibody, V domains shown)
VH: GGGLMQPGGSMKLSCVASGFTFSNYWMNWVRQSPEKGLEWVAEIRLKSNNYATHYAESVKGRFTISRDDSKRSVYLQMNTLRAEDTGIYYCTRGNGNYRAMDYWGQGTSVTVSS
VL: ASLSVSVGETVSITCRASENIYSSLAWYQQKQGKSPQLLVYSATILADGVPSRFSGSGSGTQYSLKINSLQSEDFGTYYCQHFWGTPYTFGGGTKLEIKR
B4: monoclonal antibody 4G7 (antibody, V domains shown)
VH: GPELEMPGASVKISCKASGSSFTGFSMNWVKQSNGKSLEWIGNIDTYYGGTTYNQKFKGKATLTVDKSSSTAYMQLKSLTSEDSAVYYCARSAYYGSTFAYWGQGTLVTVSA
VL: ASLSASVGETVTITCRASENIYSYLAWYQQKQGKSPQLLVYNAKTLIEGVPSRFSGSGSGTQFSLKINSLQPEDFGSYFCQHHFGTPFTFGSGTELEIKR
B5: monoclonal antibody 5D2 (antibody, V domains shown)
VH: GPGLVRPSQSLSLTCTVTGYSITSDYAWNWIRQFPGNKLEWLGYITNTGSTGFNPSLKSRISITRDTSKNQFFLQLISVTTEDTATYHCARGLAYWGQGTLVTVSA
VL: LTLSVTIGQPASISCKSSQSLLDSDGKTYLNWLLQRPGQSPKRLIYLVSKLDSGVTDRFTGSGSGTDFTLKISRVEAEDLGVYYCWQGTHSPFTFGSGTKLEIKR
B6: monoclonal antibody 7G4 (antibody, V domains shown)
VH: GGGLVQPGGSLRLSCATSGFTFTDHYMGWVRQPPGKALEWLAFVRYKAKGYTTEYTASVKGRFTISRDNSQSILYLQMNTLRTEDSATYYCARDRGGYVGAMDYWGQGTSVTVSS
VL: LSLPVSLGDQASISCRSSQSLVHRNGNTYFHWYLQKPGQSPKLLIYKVSNRFSGVPDRFSGSGSGTDFTLKISRVEAEDLGVYFCSQSTHVPYTFGGGTKLEIKR
B7: monoclonal antibody 10C8 (antibody, V domains shown)
VH: GAELVRSGASVKLSCTSSGFNIKDYFLHWVKQRPEQGLEWIGWIDPENGDTEYAPKFQDKATMTADTSSNTAYLHLSSLTSEDTGVYYCNADGNYGKNYWGQGTTLTVSS
VL: LSLPVSLGDQASISCRSSQSLVHSNGNTFLHWYLQKPGQSPKLLIYRVSNRFSGVPDRFSGSGSGTDFTLKISRVEAEDLGVYFCSQSTHVPPYTFGGGTKLEIKR
B8: monoclonal antibody 1H3 (antibody, V domains shown)
VH: GAELVKPGASVKLSCTASGFNIKDTYIHWVKQGPEQGLEWIGRIDPANGNTKYDPKFQGKATITADTSSNTAYLQLSGLTSEDTAVYYCARESRISTMLTTGYFDYWGQGTTLTVSS
VL: AIMSASPGEKVTMTCSASSSVSYMYWYQQKPGSSPRLLIYDTSNLASGVPVRFSGSGSGTSYSLTISRMEAEDAATYYCQQWSSYPYTFGGGTKLEIKR

Molecular target: T1, sGP 1-295aa
Assay: ELISA, antigen coated 0.3 µg/well, serial dilutions of MAb

Binder | binding result
B1 | no binding (tested: Cut off was 2X background)
B2 | no binding (tested: Cut off was 2X background)
B3 | no binding (tested: Cut off was 2X background)
B4 | no binding (tested: Cut off was 2X background)
B5 | no binding (tested: Cut off was 2X background)
B6 | no binding (tested: Cut off was 2X background)
B7 | no binding (tested: Cut off was 2X background)

Molecular target: T2, GP1 1-501aa
Assay: as above

Binder | binding result
B3 | no binding (tested: Cut off was 2X background)

Molecular target: T3, Mucin domain 333-458aa
Assay: as above

Binder | binding result
B3 | no binding (tested: Cut off was 2X background)
B4 | no binding (tested: Cut off was 2X background)
B8 | no binding (tested: Cut off was 2X background)
